Tested on: MS2 coat protein
Test: apparent KD of MS2 coat protein; designed switch direction (-1 OFF switch, 1 ON switch): -1; higher = weaker reporter binding
How it was run: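 Normalised cluster fluorescence was curve-fitted, and each design's median over clusters is its apparent KD. Before this, SNAP-549-labelled MS2 coat protein was titrated from 0.7 or 1.5 nM, doubling to 3 µM, over RNA switches transcribed on Illumina chips by stalled E. coli RNA polymerase. Titrations had no input, 200 uM small-molecule ligand, or an oligonucleotide input, and steps lasted 0.8–1.5 h (lowest) to 10–20 min (highest).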

[1] = input ligand: microRNA oligo, concentration not stated
[2] = Eterna round: R95, input ligand: FMN 200 uM
[3] = Eterna round: R95, input ligand: microRNA oligo, concentration not stated
[4] = Eterna round: R95, input ligand: none

## UCUGGUCGAGGAUAUACAUGAGGAUCACCCAUGUAGAUCAACCAGCUUCGGCUGGAAUGUAGAAGGCGACCAGA [E3/5-A6] (Eterna round: R97, puzzle: Exclusion 3)
Input ligand: FMN 200 uM
  apparent KD of MS2 coat protein: 149 nM
Input ligand: none
  apparent KD of MS2 coat protein: 19.8 nM

## UCUGGUCGAGGAUAUACAUUCGUGCUUCGGCACGUAAGGUCACAUGAGGAUCACCCAUGUAGAAGGCGACCAGA [E2/7-A3] (Eterna round: R97, puzzle: Exclusion 2)
Input ligand: FMN 200 uM
  apparent KD of MS2 coat protein: 181 nM
Input ligand: none
  apparent KD of MS2 coat protein: 38.4 nM

## UCUGUUGAAGGAUAUGCGUAACGAGUUACGGCUCGAGGUCUACAUGAGGAUCACCCAUGUAGAAGGUCAUCAGA [EX2 #70] (Eterna round: R97, puzzle: Exclusion 2)
Input ligand: FMN 200 uM
  apparent KD of MS2 coat protein: 15.8 nM
Input ligand: none
  apparent KD of MS2 coat protein: 15.1 nM

## UCUGUUUUGCGAGGAUAUCGACCAUUCCUCUUAACAUGAGGAUCACCCAUGUGCUAAACCUACAACGAGAAGGCGCUCAUACUC [JR_ExcNG2_Sub067] (Eterna round: R96, puzzle: Exclusion NG 2)
Input ligand: FMN 200 uM
  apparent KD of MS2 coat protein: 60.8 nM
[1]
  apparent KD of MS2 coat protein: 50 nM
Input ligand: none
  apparent KD of MS2 coat protein: 51.9 nM

## UCUUAGUCAGGAUAUACAUGAGGAUCACCCAUGUAAAAUUUUAAUUUAAUUUUAAGGUGUAGAAGGGACCACCC [Ex3 #17] (Eterna round: R97, puzzle: Exclusion 3)
Input ligand: FMN 200 uM
  apparent KD of MS2 coat protein: 33.2 nM
Input ligand: none
  apparent KD of MS2 coat protein: 37.5 nM

## UCUUAUUGAGGAUAUACAUUAAUUUACAUGAGGAUCACCCAUGUUCUUCAAUGUAUAUAUGUAGAAGGCAGAAGAU [Mat - Exclusion 5 - JL Mod - D29] (Eterna round: R97, puzzle: Exclusion 5)
Input ligand: FMN 200 uM
  apparent KD of MS2 coat protein: 41.4 nM
Input ligand: none
  apparent KD of MS2 coat protein: 18.1 nM

## UCUUAUUGCAAGGAUAUGCAAAUUAUUAUUAAUGCAGAAGGUGCUACAUGAGGAUCACCCAUGUUUCCGGGAAA [JR_E6_Sub041] (puzzle: Exclusion 6)
[2]
  apparent KD of MS2 coat protein: 66.6 nM
[3]
  apparent KD of MS2 coat protein: 31.6 nM
[4]
  apparent KD of MS2 coat protein: 31.5 nM

## UCUUAUUGCAAGGAUAUGCAAAUUAUUUUUUAAGCAGAAGGUGCAACAUGAGGAUCACCCAUGUUUCCGGGAAA [JR_E6_Sub039] (puzzle: Exclusion 6)
[3]
  apparent KD of MS2 coat protein: 23.9 nM

## UCUUGUUGUCCGUGAGAAGACAUGAGGAUCACCCAUGUUAGUUUGAUUAUGAUGUGUAAGUUUGUUGUUCGUUUUAU [JR_STOV1_v2_Sub072] (Eterna round: R97, puzzle: Sensor, turn-off variant 1)
Input ligand: FMN 200 uM
  apparent KD of MS2 coat protein: 53.1 nM
Input ligand: none
  apparent KD of MS2 coat protein: 63.1 nM

## UCUUUACAUGAGGAUCACCCAUGUGAGGAUAUGGUUUCGCUGGCCGUAGCCAGUGGAACCAGAAGGCGCAUGAU [Mat - Exclusion 1 - JL Mod - D9] (Eterna round: R97, puzzle: Exclusion 1)
Input ligand: FMN 200 uM
  apparent KD of MS2 coat protein: 51.4 nM
Input ligand: none
  apparent KD of MS2 coat protein: 27.9 nM

## UGAAGGCGAGGAUAUACUGUAUGGGACAUGAGGAUCACCCAUGUUCUGUGUGUACCCGUCGUAGAAGGCGCGAAGA [EX5 C.9] (Eterna round: R97, puzzle: Exclusion 5)
Input ligand: FMN 200 uM
  apparent KD of MS2 coat protein: 16 nM
Input ligand: none
  apparent KD of MS2 coat protein: 14.5 nM

## UGAAGUAGAGGAUAUACGUGGAAAUAGAUUCAUGUAUAUCUACAUGAGGAUCACCCAUGUAGAAGGCUAUAGAU [JR_Ex2_Sub073] (Eterna round: R97, puzzle: Exclusion 2)
Input ligand: FMN 200 uM
  apparent KD of MS2 coat protein: 22.8 nM
Input ligand: none
  apparent KD of MS2 coat protein: 22.4 nM

## UGAAGUUGUGUGAGGAUAUCGGGCCCGAAAGGGCCCGAGAAGGCACAUGAGGAUCACCCAUGUAAGCGGCUUCG [-37.8, -35.7 kcal, A 26%, 0-3] (Eterna round: R97, puzzle: Brourd's mod of Exclusion 4)
Input ligand: FMN 200 uM
  apparent KD of MS2 coat protein: 15.8 nM
Input ligand: none
  apparent KD of MS2 coat protein: 19.6 nM

## UGACGGAUAGGAUAUGUAUCGCCUGACAUGAGGAUCACCCAUGUGGUUCAUAAGUUGCCAACAGAAGGAUCAGAAA [Eternabot (L1) Solution 60] (Eterna round: R97, puzzle: Exclusion 5)
Input ligand: FMN 200 uM
  apparent KD of MS2 coat protein: 129 nM
Input ligand: none
  apparent KD of MS2 coat protein: 180 nM

## UGACUUCAUAUCACAUGAGGAUCACCCAUGUUAUUCAUCGCGUAGGAUAUCGAGGUUUAUUAUUACGAGAAGGACGUAUUGAUA [JR_ExcNG3_Sub074] (Eterna round: R96, puzzle: Exclusion NG 3)
Input ligand: FMN 200 uM
  apparent KD of MS2 coat protein: 61.1 nM
[1]
  apparent KD of MS2 coat protein: 34.5 nM
Input ligand: none
  apparent KD of MS2 coat protein: 40.7 nM

## UGAGAACAUGAGGAUCACCCAUGUAAGGAUAUGCGAAGAGUUCGGAGAGGUUGAGGAGGCAGAAGGUACAGGAG [JR_Exclu1_Sub043] (puzzle: Exclusion 1)
[2]
  apparent KD of MS2 coat protein: 46.8 nM
[3]
  apparent KD of MS2 coat protein: 35.8 nM
[4]
  apparent KD of MS2 coat protein: 58.7 nM

## UGAGAACAUGAGGAUCACCCAUGUAAGGAUAUGCGAAGAGUUCGGAGAGGUUGAGGAGGCAGAAGGUACGGGAG [JR_Exclu1_Sub044] (puzzle: Exclusion 1)
[2]
  apparent KD of MS2 coat protein: 37.5 nM
[3]
  apparent KD of MS2 coat protein: 32.5 nM
[4]
  apparent KD of MS2 coat protein: 49.8 nM

## UGAGAGUCAGGAUAUCGAAGGUAGUGGAGAGGAGUGUGGUACGAGAAGGGACAUGAGGAUCACCCAUGUAGGUG [JR_Exclusion4)Sub009] (puzzle: Exclusion 4)
[3]
  apparent KD of MS2 coat protein: 420 nM

## UGAGUGCUGCGAGGAUAUACAUGAGGAUCACCCAUGUAAAUGUGUGAGGCUUUGCCUCACACAAUGUAGAAGGCGCAGUACUCU [JL ENG2 1.01] (Eterna round: R96, puzzle: Exclusion NG 2)
[1]
  apparent KD of MS2 coat protein: 9.17 nM

## UGAGUGCUGCGAGGAUAUACAUGAGGAUCACCCAUGUAAUAGUGUGAGGCUUUGCCUCACACAAUGUAGAAGGCGCAGUACUCU [JL ENG2 1.02] (Eterna round: R96, puzzle: Exclusion NG 2)
Input ligand: FMN 200 uM
  apparent KD of MS2 coat protein: 17.1 nM
[1]
  apparent KD of MS2 coat protein: 8.58 nM
Input ligand: none
  apparent KD of MS2 coat protein: 12.5 nM

## UGAGUGCUGCGAGGAUAUACAUGAGGAUCACCCAUGUAAUCGUGUGAGGCUUUGCCUCACACGAUGUAGAAGGCGCAGUACUCU [JL ENG2 1.09] (Eterna round: R96, puzzle: Exclusion NG 2)
Input ligand: FMN 200 uM
  apparent KD of MS2 coat protein: 9.84 nM
[1]
  apparent KD of MS2 coat protein: 8.97 nM
Input ligand: none
  apparent KD of MS2 coat protein: 11.9 nM

## UGAGUGCUGCGAGGAUAUACAUGAGGAUCACCCAUGUAUUAGUGUGAGGCUUUGCCUCACACAAUGUAGAAGGCGCAGUACUCU [JL ENG2 1.03] (Eterna round: R96, puzzle: Exclusion NG 2)
Input ligand: FMN 200 uM
  apparent KD of MS2 coat protein: 5.74 nM
[1]
  apparent KD of MS2 coat protein: 10.3 nM
Input ligand: none
  apparent KD of MS2 coat protein: 13.1 nM

## UGAGUGGUGCGAGGAUAUACAUGAGGAUCACCCAUGUAAACGUGUGAGGCAAAGCCUCACACGAUGUAGAAGGCGCACUACUCU [Mat - Exclusion NG 2 - Mod of JL - D14] (Eterna round: R96, puzzle: Exclusion NG 2)
Input ligand: FMN 200 uM
  apparent KD of MS2 coat protein: 24.7 nM
[1]
  apparent KD of MS2 coat protein: 12.4 nM
Input ligand: none
  apparent KD of MS2 coat protein: 19.5 nM

## UGAUCAAAUGUCAGGAUAUGCUAUUAGAAAUAAUAGCAGAAGGGACAUGAGGAUCACCCAUGUCUUGUCGAUUU [Magic-01] (puzzle: Brourd's mod of Exclusion 4)
[2]
  apparent KD of MS2 coat protein: 93.5 nM
[3]
  apparent KD of MS2 coat protein: 19.2 nM
[4]
  apparent KD of MS2 coat protein: 20.1 nM

## UGAUCAGACCGAGGAUAUACAUGUAGGACCCACGUGAGUGGGUCCAGUACAUGAGGAUCACCCAUGUAGAAGGCGGUCUGAUCU [JL ENG2 1.89] (Eterna round: R96, puzzle: Exclusion NG 2)
Input ligand: FMN 200 uM
  apparent KD of MS2 coat protein: 241 nM
[1]
  apparent KD of MS2 coat protein: 70.6 nM
Input ligand: none
  apparent KD of MS2 coat protein: 94.6 nM

## UGAUCAGACCGAGGAUAUACAUGUAGGACGCACGUGAGUGCGUCCAAUACAUGAGGAUCACCCAUGUAGAAGGCGGUCUGAUCU [JL ENG2 1.94] (Eterna round: R96, puzzle: Exclusion NG 2)
Input ligand: FMN 200 uM
  apparent KD of MS2 coat protein: 181 nM
[1]
  apparent KD of MS2 coat protein: 76.4 nM
Input ligand: none
  apparent KD of MS2 coat protein: 86.7 nM

## UGAUCAGACCGAGGAUAUAUAUGUAGGACGCACGUGAGUGCGUCCAAUACAUGAGGAUCACCCAUGUAGAAGGCGGUCUGAUCU [JL ENG2 1.97] (Eterna round: R96, puzzle: Exclusion NG 2)
Input ligand: FMN 200 uM
  apparent KD of MS2 coat protein: 18.5 nM
[1]
  apparent KD of MS2 coat protein: 9.9 nM
Input ligand: none
  apparent KD of MS2 coat protein: 14.2 nM

## UGAUCCAAAGAGGAUAUGUCGGGCCAGGGCCCAACAGAAGGCUUUACAUGAGGAUCACCCAUGUUCGCGACAUG [EX6 A.22] (Eterna round: R97, puzzle: Exclusion 6)
Input ligand: FMN 200 uM
  apparent KD of MS2 coat protein: 481 nM
Input ligand: none
  apparent KD of MS2 coat protein: 558 nM

## UGAUCCGGUGUGAGGAUAUUUAACCUCAUAUAGGUAAAGAAGGCACAUGAGGAUCACCCAUGUCGAGGCCCGAU [Eternabot (L2) Solution 74] (Eterna round: R97, puzzle: Brourd's mod of Exclusion 4)
Input ligand: FMN 200 uM
  apparent KD of MS2 coat protein: 209 nM
Input ligand: none
  apparent KD of MS2 coat protein: 168 nM

## UGAUCUAGCGGAGGAUAUACAUGAGGAUCACCCAUGUAAUGGUGACGUGCGUACAUGUCACCUGUGUAGAAGGCCGCUAGAUCU [JL ENG2 3.57] (Eterna round: R96, puzzle: Exclusion NG 2)
Input ligand: FMN 200 uM
  apparent KD of MS2 coat protein: 11.3 nM
[1]
  apparent KD of MS2 coat protein: 15.6 nM
Input ligand: none
  apparent KD of MS2 coat protein: 16 nM

## UGAUCUAGCGGAGGAUAUACAUGAGGAUCACCCAUGUAGACUCCAUGACCGUAGUCGUGGAGCGUGUAGAAGGCCGCUAGAUCU [JL ENG2 3.72] (Eterna round: R96, puzzle: Exclusion NG 2)
Input ligand: FMN 200 uM
  apparent KD of MS2 coat protein: 19.2 nM
[1]
  apparent KD of MS2 coat protein: 10.3 nM
Input ligand: none
  apparent KD of MS2 coat protein: 12.2 nM

## UGAUCUAGCGGAGGAUAUACAUGAGGAUCACCCAUGUAGACUCCAUGACCGUAGUCGUGGAGUGUGUAGAAGGCCGCUAGAUCU [JL ENG2 3.73] (Eterna round: R96, puzzle: Exclusion NG 2)
Input ligand: FMN 200 uM
  apparent KD of MS2 coat protein: 15.2 nM
[1]
  apparent KD of MS2 coat protein: 9.33 nM
Input ligand: none
  apparent KD of MS2 coat protein: 12 nM

## UGAUCUAGCGGAGGAUAUACAUGAGGAUCACCCAUGUAUAGGCUAUGACCGUAGUCGUGGCACAUGUAGAAGGCCGCUAGAUCU [JL ENG2 3.78] (Eterna round: R96, puzzle: Exclusion NG 2)
Input ligand: FMN 200 uM
  apparent KD of MS2 coat protein: 43.7 nM
[1]
  apparent KD of MS2 coat protein: 12.8 nM
Input ligand: none
  apparent KD of MS2 coat protein: 15.2 nM
